Test results reported in paper PMC8667043, “First-in-Class Inhibitors of the Ribosomal Oxygenase MINA53” (Journal of Medicinal Chemistry, 2021).

What was measured:
[1] = substrate: CC[C@H](C)[C@H](NC(=O)[C@H](CCCNC(=N)N)NC(=O)[C@H](Cc1c[nH]cn1)NC(=O)[C@H](Cc1c[nH]cn1)NC(=O)[C@H](Cc1c[nH]cn1)NC(=O)[C@H](CC(C)C)NC(=O)CNC(=O)CNC(=O)[C@H](C)NC(=O)[C@H](CC(N)=O)NC(=O)CNC(=O)[C@H](CCCNC(=N)N)NC(=O)CN)C(=O)N[C@@H](CC(N)=O)C(=O)N[C@@H](Cc1ccccc1)C(=O)N[C@@H](CC(=O)O)C(=O)N[C@@H](CCCCN)C(=O)N[C@@H](Cc1ccc(O)cc1)C(=O)N[C@@H](Cc1c[nH]cn1)C(=O)N1CCC[C@H]1C(=O)O; test: Determination of enzyme kinetic parameters (MS assay); assay type: biochemical; settings: other: 2OG, Fe(II): MINA53 (Met26-Val464), n = 4; peptide: MINA53 (Met1-Val464), n = 3; means ± 95% confidence
Description: (§1) Assays were performed in a 96-well, 2 mL polypropylene plate (Greiner Bio-one). […] Ion chromatogram data for the Rpl27a (m/z +5 charge state) and Rpl8 substrates (m/z +4 charge state) were extracted, and the peak areas were integrated using RapidFire Integrator software (Agilent). The integrated peak areas were exported into Excel, and the percent hydroxylation was calculated. The initial rate slope for each peptide concentration was calculated using excel, and the data were fitted to the Michaelis–Menten equation using GraphPad prism 5.
(§2) The concentrations were prepared as an 8-point 2-fold dilution series with a starting concentration of 20 μM. Each time series was based on 6-time points (0, 1, 5, 10, 20, and 30 min for NO66 and 0, 1, 3, 5, 7, and 10 min for MINA53). […] Reactions were stopped by the addition of 5 μL of 10% (v/v) formic acid. The first four reaction data points (starting with the 1 min time point) were used for kinetic analysis.

[2] = substrate: CC[C@H](C)[C@H](NC(=O)[C@H](Cc1c[nH]cn1)NC(=O)[C@H](CCC(N)=O)NC(=O)[C@H](Cc1c[nH]cn1)NC(=O)[C@H](CC(N)=O)NC(=O)CNC(=O)CNC(=O)CNC(=O)[C@H](Cc1ccccc1)NC(=O)[C@@H]1CCCN1C(=O)[C@H](Cc1c[nH]cn1)NC(=O)[C@H](CCC(=O)O)NC(=O)[C@@H](NC(=O)[C@@H]1CCCN1C(=O)[C@@H](N)CC(N)=O)C(C)C)C(=O)NCC(=O)N[C@@H](CCCCN)C(=O)N1CCC[C@H]1C(=O)N[C@@H](CO)C(=O)N[C@H](C(=O)O)[C@@H](C)O; test: as above; assay type: biochemical; settings: other: 2OG, Fe(II): NO66 (Ser183-Asn641), n = 4; peptide: NO66 (Gln116-Asn641), n = 3; means ± 95% confidence
Description: as §1, §2

B1: MINA53 (Homo sapiens) (protein)
chain: MPKKAKPTGSGKEEGPAPCKQMKLEAAGGPSALNFDSPSSLFESLISPIKTETFFKEFWEQKPLLIQRDDPALATYYGSLFKLTDLKSLCSRGMYYGRDVNVCRCVNGKKKVLNKDGKAHFLQLRKDFDQKRATIQFHQPQRFKDELWRIQEKLECYFGSLVGSNVYITPAGSQGLPPHYDDVEVFILQLEGEKHWRLYHPTVPLAREYSVEAEERIGRPVHEFMLKPGDLLYFPRGTIHQADTPAGLAHSTHVTISTYQNNSWGDFLLDTISGLVFDTAKEDVELRTGIPRQLLLQVESTTVATRRLSGFLRTLADRLEGTKELLSSDMKKDFIMHRLPPYSAGDGAELSTPGGKLPRLDSVVRLQFKDHIVLTVLPDQDQSDEAQEKMVYIYHSLKNSRETHMMGNEEETEFHGLRFPLSHLDALKQIWNSPAISVKDLKLTTDEEKESLVLSLWTECLIQVV
Km [1]: 10.5 ± 5.5 µM
Vmax [1]: 0.36 ± 0.1 µM/min

B2: NO66 (Homo sapiens) (protein)
chain: MDGLQASAGPLRRGRPKRRRKPQPHSGSVLALPLRSRKIRKQLRSVVSRMAALRTQTLPSENSEESRVESTADDLGDALPGGAAVAAVPDAARREPYGHLGPAELLEASPAARSLQTPSARLVPASAPPARLVEVPAAPVRVVETSALLCTAQHLAAVQSSGAPATASGPQVDNTGGEPAWDSPLRRVLAELNRIPSSRRRAARLFEWLIAPMPPDHFYRRLWEREAVLVRRQDHTYYQGLFSTADLDSMLRNEEVQFGQHLDAARYINGRRETLNPPGRALPAAAWSLYQAGCSLRLLCPQAFSTTVWQFLAVLQEQFGSMAGSNVYLTPPNSQGFAPHYDDIEAFVLQLEGRKLWRVYRPRVPTEELALTSSPNFSQDDLGEPVLQTVLEPGDLLYFPRGFIHQAECQDGVHSLHLTLSTYQRNTWGDFLEAILPLAVQAAMEENVEFRRGLPRDFMDYMGAQHSDSKDPRRTAFMEKVRVLVARLGHFAPVDAVADQRAKDFIHDSLPPVLTDRERALSVYGLPIRWEAGEPVNVGAQLTTETEVHMLQDGIARLVGEGGHLFLYYTVENSRVYHLEEPKCLEIYPQQADAMELLLGSYPEFVRVGDLPCDSVEDQLSLATTLYDKGLLLTKMPLALN
Km [2]: 19.11 ± 6.3 µM
Vmax [2]: 0.34 ± 0.05 µM/min
